Reference: the supplement of paper PMC10567573

B1: PRIM1 (parent)
chain: CCSSADICPKCWTLMTMAIRIIDR
B2: FAM46D (parent)
chain: LELKFVSSLRRQFEFSVDSFQIVL

Variants of: B1
Assay: protein stability index of a GFP-peptide fusion (GPS, HEK-293T) (PSI 1-6); higher = more stable
Settings: c terminus: a fixed tail appended
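Note: lentivirally expressed fusions sorted by FACS into six bins by GFP to DsRed ratio, PSI derived from sequencing read proportions per bin multiplied by bin number.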

| Variant | protein stability index |
| --- | --- |
| CCSSADICPKCWTLMTMAIRHIDR | 2.23 |
| CCSSADICPKCWTLMTMAIRLIDR | 1.49 |
| CCSSADICPKCWTLMTMAIRDIDR | 2.68 |
| CCSSADICPKCWTLMTMAIRYIDR | 1.73 |
| CCSSADICPKCWTLMTMAIRNIDR | 2.46 |
| CCSSADICPKCWTLMTMAIRAIDR | 2.2 |
| CCSSADICPKCWTLMTMAIRWIDR | 1.9 |
| CCSSADICPKCWTLMTMAIRCIDR | 1.94 |
| CCSSADICPKCWTLMTMAIREIDR | 1.58 |
| CCSSADICPKCWTLMTMAIRRIDR | 2.75 |
| CCSSADICPKCWTLMTMAIRFIDR | 1.39 |
| CCSSADICPKCWTLMTMAIRGIDR | 2.2 |
| CCSSADICPKCWTLMTMAIRTIDR | 1.68 |
| CCSSADICPKCWTLMTMAIRVIDR | 1.67 |
| CCSSADICPKCWTLMTMAIRPIDR | 2.28 |
| CCSSADICPKCWTLMTMAIRQIDR | 2.05 |
| CCSSADICPKCWTLMTMAIRMIDR | 1.89 |
| CCSSADICPKCWTLMTMAIRKIDR | 2.35 |
| CCSSADICPKCWTLMTMASRIIDR | 2.6 |
| CCSSADICPKCWTLMTMATRIIDR | 2.98 |
| CCSSADICPKCWTLMTMAGRIIDR | 2.21 |
| CCSSADICPKCWTLMTMAVRIIDR | 2.58 |

| Variant | protein stability index |
| --- | --- |
| CCSSADICPKCWTLMTMAFRIIDR | 1.57 |
| CCSSADICPKCWTLMTMAKRIIDR | 2.77 |
| CCSSADICPKCWTLMTMANRIIDR | 2.89 |
| CCSSADICPKCWTLMTMAPRIIDR | 2.8 |
| CCSSADICPKCWTLMTMAHRIIDR | 2.8 |
| CCSSADICPKCWTLMTMAARIIDR | 1.93 |
| CCSSADICPKCWTLMTMAMRIIDR | 2.33 |
| CCSSADICPKCWTLMTMAQRIIDR | 1.81 |
| CCSSADICPKCWTLMTMADRIIDR | 2.92 |
| CCSSADICPKCWTLMTMAWRIIDR | 1.83 |
| CCSSADICPKCWTLMTMALRIIDR | 2.12 |
| CCSSADICPKCWTLMTMAERIIDR | 2.48 |
| CCSSADICPKCWTLMTMAYRIIDR | 2.05 |
| CCSSADICPKCWTLMTMAIGIIDR | 2.23 |
| CCSSADICPKCWTLMTMAIPIIDR | 2.25 |
| CCSSADICPKCWTLMTMAIKIIDR | 1.19 |
| CCSSADICPKCWTLMTMAIAIIDR | 1.93 |
| CCSSADICPKCWTLMTMAINIIDR | 2.18 |
| CCSSADICPKCWTLMTMAIYIIDR | 1.91 |
| CCSSADICPKCWTLMTMAIIIIDR | 1.33 |
| CCSSADICPKCWTLMTMAIQIIDR | 3.56 |
| CCSSADICPKCWTLMTMAISIIDR | 2.01 |

| Variant | protein stability index |
| --- | --- |
| CCSSADICPKCWTLMTMAIHIIDR | 2.05 |
| CCSSADICPKCWTLMTMAIWIIDR | 1.65 |
| CCSSADICPKCWTLMTMAITIIDR | 1.67 |
| CCSSADICPKCWTLMTMAIFIIDR | 1.46 |
| CCSSADICPKCWTLMTMAILIIDR | 1.77 |
| CCSSADICPKCWTLMTMAIDIIDR | 1.5 |
| CCSSADICPKCWTLMTMAICIIDR | 1.96 |
| CCSSADICPKCWTLMTMAIEIIDR | 1.83 |
| CCSSADICPKCWTLMTMAIVIIDR | 1.96 |
| CCSSADICPKCWTLMTVAIRIIDR | 1.6 |
| CCSSADICPKCWTLMTQAIRIIDR | 2.54 |
| CCSSADICPKCWTLMTPAIRIIDR | 2.29 |
| CCSSADICPKCWTLMTSAIRIIDR | 2.95 |
| CCSSADICPKCWTLMTLAIRIIDR | 1.74 |
| CCSSADICPKCWTLMTNAIRIIDR | 2.48 |
| CCSSADICPKCWTLMTWAIRIIDR | 2.19 |
| CCSSADICPKCWTLMTYAIRIIDR | 2.15 |
| CCSSADICPKCWTLMTRAIRIIDR | 1.7 |
| CCSSADICPKCWTLMTTAIRIIDR | 2.09 |
| CCSSADICPKCWTLMTMDIRIIDR | 2.39 |
| CCSSADICPKCWTLMTMKIRIIDR | 2.17 |
| CCSSADICPKCWTLMTMQIRIIDR | 2.71 |

| Variant | protein stability index |
| --- | --- |
| CCSSADICPKCWTLMTMRIRIIDR | 1.94 |
| CCSSADICPKCWTLMTMYIRIIDR | 1.34 |
| CCSSADICPKCWTLMTMFIRIIDR | 1.64 |
| CCSSADICPKCWTLMTMHIRIIDR | 2.1 |
| CCSSADICPKCWTLMTMPIRIIDR | 2.1 |
| CCSSADICPKCWTLMTMIIRIIDR | 1.79 |
| CCSSADICPKCWTLMTMLIRIIDR | 2.3 |
| CCSSADICPKCWTLMTMVIRIIDR | 2.18 |
| CCSSADICPKCWTLMTMMIRIIDR | 1.24 |
| CCSSADICPKCWTLMTMCIRIIDR | 2.45 |
| CCSSADICPKCWTLMTMGIRIIDR | 2.06 |
| CCSSADICPKCWTLMTMWIRIIDR | 2.92 |
| CCSSADICPKCWTLMTMEIRIIDR | 1.45 |
| CCSSADICPKCWTLMTMTIRIIDR | 1.56 |
| CCSSADICPKCWTLMTMAIRIIDY | 1.78 |
| CCSSADICPKCWTLMTMAIRIIDP | 3.32 |
| CCSSADICPKCWTLMTMAIRIIDI | 1.69 |
| CCSSADICPKCWTLMTMAIRIIDH | 1.95 |
| CCSSADICPKCWTLMTMAIRIIDK | 1.25 |
| CCSSADICPKCWTLMTMAIRIIDT | 1.97 |
| CCSSADICPKCWTLMTMAIRIIDA | 1.89 |
| CCSSADICPKCWTLMTMAIRIIDL | 1.91 |

| Variant | protein stability index |
| --- | --- |
| CCSSADICPKCWTLMTMAIRIIDN | 1.8 |
| CCSSADICPKCWTLMTMAIRIIDV | 2.46 |
| CCSSADICPKCWTLMTMAIRIIDC | 2.19 |
| CCSSADICPKCWTLMTMAIRIIDW | 2.19 |
| CCSSADICPKCWTLMTMAIRIIDG | 1.81 |
| CCSSADICPKCWTLMTMAIRIIDQ | 1.52 |
| CCSSADICPKCWTLMTMAIRIIDM | 2.12 |
| CCSSADICPKCWTLMTMAIRIIDD | 2.09 |
| CCSSADICPKCWTLMTMAIRIIDF | 1.68 |
| CCSSADICPKCWTLMTMAIRITDR | 2.97 |
| CCSSADICPKCWTLMTMAIRIQDR | 2.81 |
| CCSSADICPKCWTLMTMAIRIYDR | 2.09 |
| CCSSADICPKCWTLMTMAIRIVDR | 2.34 |
| CCSSADICPKCWTLMTMAIRILDR | 2.3 |
| CCSSADICPKCWTLMTMAIRINDR | 2.52 |
| CCSSADICPKCWTLMTMAIRIMDR | 1.8 |
| CCSSADICPKCWTLMTMAIRIWDR | 1.72 |
| CCSSADICPKCWTLMTMAIRIKDR | 2.94 |
| CCSSADICPKCWTLMTMAIRIGDR | 2.44 |
| CCSSADICPKCWTLMTMAIRIADR | 2.1 |
| CCSSADICPKCWTLMTMAIRIEDR | 2.57 |
| CCSSADICPKCWTLMTMAIRIPDR | 2.71 |

| Variant | protein stability index |
| --- | --- |
| CCSSADICPKCWTLMTMAIRISDR | 1.6 |
| CCSSADICPKCWTLMTMAIRIRDR | 2.5 |
| CCSSADICPKCWTLMTMAIRIFDR | 1.59 |
| CCSSADICPKCWTLMTMAIRIHDR | 1.9 |
| CCSSADICPKCWTLMTMAIRIICR | 2.19 |
| CCSSADICPKCWTLMTMAIRIIRR | 1.68 |
| CCSSADICPKCWTLMTMAIRIIYR | 1.61 |
| CCSSADICPKCWTLMTMAIRIITR | 1.82 |
| CCSSADICPKCWTLMTMAIRIILR | 2.25 |
| CCSSADICPKCWTLMTMAIRIIHR | 1.69 |
| CCSSADICPKCWTLMTMAIRIIVR | 2.31 |
| CCSSADICPKCWTLMTMAIRIIPR | 2.42 |
| CCSSADICPKCWTLMTMAIRIIMR | 1.64 |
| CCSSADICPKCWTLMTMAIRIIFR | 1.78 |
| CCSSADICPKCWTLMTMAIRIIKR | 1.41 |
| CCSSADICPKCWTLMTMAIRIINR | 1.47 |
| CCSSADICPKCWTLMTMAIRIIER | 1.94 |
| CCSSADICPKCWTLMTMAIRIIWR | 2.15 |
| CCSSADICPKCWTLMTMAIRIIQR | 2.09 |
| CCSSADICPKCWTLMTMAIRIIAR | 2.29 |
| CCSSADICPKCWTLMTMAIRIIIR | 1.84 |
| CCSSADICPKCWTLMTMAIRIISR | 2.96 |

Variants of: B2
Assay: as above
Settings: c terminus: a fixed tail appended

| Variant | protein stability index |
| --- | --- |
| LELKFVSSLRRQFEFSVDSPQIVL | 3.04 |
| LELKFVSSLRRQFEFSVDSEQIVL | 3.3 |
| LELKFLSSLRRQFEFSVDSFQIVL | 2.81 |
| LELKFPSSLRRQFEFSVDSFQIVL | 2.08 |
| LELKFFSSLRRQFEFSVDSFQIVL | 2.38 |
| LELKFVSSLRSQFEFSVDSFQIVL | 2.99 |
| LELKFVSSLRTQFEFSVDSFQIVL | 3.4 |
| LELKFVSSLRKQFEFSVDSFQIVL | 3.21 |
| LELKFVSSLRRQFEFPVDSFQIVL | 3.75 |
| LELKFVSSLRRQFEFMVDSFQIVL | 3.57 |
| LELKFVSSLRRQFEFSVDSFQIVG | 2.6 |
| LELKFVSSLRRQFEFSVDSFQIVE | 3.4 |
| LELKFVSSLRRQFEFSVDSFPIVL | 2.71 |
| LELKFVSSLSRQFEFSVDSFQIVL | 3.46 |
| LELKFVSSLFRQFEFSVDSFQIVL | 2.79 |
| LELKFVSSLIRQFEFSVDSFQIVL | 3.38 |
| LELKFVSSLHRQFEFSVDSFQIVL | 2.93 |
| LELKFVSSLRRQFEFSVDSFQAVL | 2.26 |
| LELKFVSSLRRQFEFSADSFQIVL | 2.4 |

| Variant | protein stability index |
| --- | --- |
| LELKFVSSLRRQFEFSKDSFQIVL | 2.76 |
| LELKFVSSLRRQFEFSFDSFQIVL | 2.88 |
| LELKFVSSLRRQFEFSVDSFQIRL | 2.76 |
| LELKFVSSLRRQFEFSVDSFQIFL | 1.98 |
| LEQKFVSSLRRQFEFSVDSFQIVL | 2.38 |
| LEYKFVSSLRRQFEFSVDSFQIVL | 2.2 |
| LELKFVSMLRRQFEFSVDSFQIVL | 3.34 |
| LKLKFVSSLRRQFEFSVDSFQIVL | 3.23 |
| LALKFVSSLRRQFEFSVDSFQIVL | 2.56 |
| LELKVVSSLRRQFEFSVDSFQIVL | 3.54 |
| LELKFVSSLRRQFEFSVDYFQIVL | 2.75 |
| LELKFVSSLRRQFEFSVDCFQIVL | 2.44 |
| LELKFVSSLRRQFEFSVDAFQIVL | 3.69 |
| LELKFVSSLRRQFEFSVPSFQIVL | 3.29 |
| LELKFVSSLRRQFEFSVASFQIVL | 4.25 |
| LELKFVSSLRRQFEFSVFSFQIVL | 2.06 |
| LELKFVSSLRRQFEFSVNSFQIVL | 3.43 |
| LELKFVSSLRRDFEFSVDSFQIVL | 2.52 |
| LELKFVSSLRRHFEFSVDSFQIVL | 2.46 |

| Variant | protein stability index |
| --- | --- |
| LELKFVSSLRRCFEFSVDSFQIVL | 1.78 |
| LELKFVSSLRRTFEFSVDSFQIVL | 2.42 |
| LELKFVSSLRRQFEVSVDSFQIVL | 4.5 |
| LELKFVSSLRRQFESSVDSFQIVL | 3.33 |
| LELKFVSSLRRQFEQSVDSFQIVL | 3.16 |
| LELKFVSSERRQFEFSVDSFQIVL | 1.82 |
| LELKFVSSYRRQFEFSVDSFQIVL | 2.01 |
| QELKFVSSLRRQFEFSVDSFQIVL | 2.32 |
| VELKFVSSLRRQFEFSVDSFQIVL | 2.79 |
| LELYFVSSLRRQFEFSVDSFQIVL | 2.06 |
| LELIFVSSLRRQFEFSVDSFQIVL | 2.9 |
| LELKFVSSLRRQFPFSVDSFQIVL | 3.67 |
| LELKFVSSLRRQFNFSVDSFQIVL | 2.89 |
| LELKFVSSLRRQFCFSVDSFQIVL | 3.17 |
| LELKFVSSLRRQFRFSVDSFQIVL | 2.17 |
| LELKFVSSLRRQFTFSVDSFQIVL | 4.77 |
| LELKFVSSLRRQREFSVDSFQIVL | 3.23 |
| LELKFVSSLRRQLEFSVDSFQIVL | 3.36 |
